Where no end group is shown, it is not given here.
Biological target: T1, MBP-PDZ protein (Erbin PDZ) with a single cysteine, conjugated to DNA (UniProt Q96RT1 1321-1410, ATTO 532 (labelled with ATTO 532-NHS); amine-modified DNA oligonucleotide coupled through sulfo-SMCC to the single cysteine between MBP and PDZ)
T1 chain: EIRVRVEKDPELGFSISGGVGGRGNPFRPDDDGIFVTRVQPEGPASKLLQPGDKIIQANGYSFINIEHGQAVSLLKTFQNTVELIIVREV
Assay: FP; no DNA attached to MBP-PDZ

B1: ATTO 655-labeled target peptide (peptide)
chain: CGAGRGSIDTWV
modifications: also: ATTO 655 label (site not given here)
A Kd of 200 nM was found for B1 in this work.
